Earlier results in publication PMC12060137.

Biological target: TfR1 (Homo sapiens) (UniProt P02786)
Sequence (P02786 89-760): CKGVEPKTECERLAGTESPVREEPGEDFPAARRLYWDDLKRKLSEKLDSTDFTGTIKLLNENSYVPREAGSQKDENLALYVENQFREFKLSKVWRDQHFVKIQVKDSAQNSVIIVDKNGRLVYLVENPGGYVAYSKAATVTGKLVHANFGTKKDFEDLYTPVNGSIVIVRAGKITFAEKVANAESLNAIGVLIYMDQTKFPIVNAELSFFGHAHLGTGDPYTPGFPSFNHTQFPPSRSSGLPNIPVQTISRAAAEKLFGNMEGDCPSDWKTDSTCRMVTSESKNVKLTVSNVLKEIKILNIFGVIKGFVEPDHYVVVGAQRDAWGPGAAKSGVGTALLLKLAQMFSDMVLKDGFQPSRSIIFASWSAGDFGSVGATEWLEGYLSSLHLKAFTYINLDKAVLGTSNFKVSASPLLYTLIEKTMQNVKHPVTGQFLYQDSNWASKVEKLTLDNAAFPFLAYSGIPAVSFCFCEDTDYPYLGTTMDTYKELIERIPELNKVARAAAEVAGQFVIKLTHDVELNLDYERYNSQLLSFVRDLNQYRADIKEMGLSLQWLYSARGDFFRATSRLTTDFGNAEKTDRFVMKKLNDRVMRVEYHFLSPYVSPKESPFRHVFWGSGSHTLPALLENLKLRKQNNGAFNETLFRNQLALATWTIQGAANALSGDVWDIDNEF

Sequence of HFt-W4 ferritin nanoparticle (P02794 2-183): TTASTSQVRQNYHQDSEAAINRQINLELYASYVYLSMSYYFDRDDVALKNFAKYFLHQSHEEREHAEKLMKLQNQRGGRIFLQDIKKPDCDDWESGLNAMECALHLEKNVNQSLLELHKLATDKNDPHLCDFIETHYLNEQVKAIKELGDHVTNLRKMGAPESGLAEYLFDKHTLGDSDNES

Kd: 25 nM
Substance: HFt-W4 ferritin nanoparticle (from UniProt P02794)
